The text below walks through data of US20260364214A1, “MULTIVALENT FIBROBLAST ACTIVATION PROTEIN LIGANDS FOR TARGETED DELIVERY APPLICATIONS” (Philochem AG, priority 2022, published 2026).

Data set [1] in a line: Tolerability (body weight change) of MMAE conjugates in HT-1080.hFAP tumor bearing mice. The class given is in vivo, mouse (athymic Balb/c AnNRj-Foxn1). Conditions: 50 or 125 nmol/kg. As for the experimental part:
The anti-cancer efficacy of (i) ESV6-GlyPro-MMAE (50 or 125 nmol/kg) —corresponding to Conjugate 58a of EP3891138B1—, and (ii) Tri-ESV6-GlyPro-MMAE (50 or 125 nmol/kg) according to the present invention was assessed in athymic Balb/c AnNRj-Foxn1 mice bearing HT-1080.hFAP tumor in the right flank. Therapy experiments started when the average volume of established tumors had reached 80-100 mm3. Body weight of the animals and tumor volume were daily measured and recorded. Tumor dimensions were measured with an electronic caliper and tumor volume was calculated with the formula (long side, mm)×(short side, mm)×(short side, mm)×0.5. Animals were euthanized when one or more termination criterium indicated by the experimental license was reached. Prism 7 software (GraphPad Software) was used for data analysis.

Data set [2] relates to HT-1080.hFAP tumors. Kind of data set: Quantitative in vivo MMAE release in tumor and healthy organs. Set-up: species or system mouse (athymic Balb/c AnNRj-Foxn1). Conditions: 250 nmol/kg; vs ESV6-GlyPro-MMAE and Bi-ESV6-GlyPro-MMAE. The text has this: The ESV6 binding moiety in monomeric, dimeric or trimeric form was conjugated to an identical linker-payload structure based on a Glycine-Proline linker and an MMAE cytotoxic moiety. The three conjugates: (i) ESV6-GlyPro-MMAE—corresponding to Conjugate 58a of EP3891138B1—, (ii) Bi-ESV6-GlyPro-MMAE—corresponding to Conjugate 11 of WO2022/171811A1, and (iii) Tri-ESV6-GlyPro-MMAE—corresponding to Conjugate 9 of the present invention—, were compared in a tumor mouse model to study the efficacy of release of the MMAE cytotoxic moiety into the tumor.
HT-1080.hFAP tumors were implanted into the right flank of athymic Balb/c AnNRj-Foxn1 mice and allowed to grow to an average volume of approximately 200 mm^3. Mice were injected with the three conjugates at a dose of 250 nmol/kg and sacrificed at different timepoints after administration. Fresh blood was collected in lithium heparin tubes (BD Microcontainer LH Tubes), vortexed, and centrifuged (15,000 g, 15 minutes). […] Peak areas of analytes and internal standards were integrated, and corresponding ratios were calculated. The ratios were then transformed into pmol/g of wet tissue using single-concentration external calibration points and corrected by the total weight of the sample analysed. The percentage of injected dose per gram (% ID/g) was finally calculated by normalizing the value based on the total dose injected into the mouse. […]

Take `CC[C@@H](C)[C@@H]([C@@H](CC(=O)N1CCC[C@H]1[C@H](OC)[C@@H](C)C(=O)N[C@H](C)[C@@H](O)c1ccccc1)OC)N(C)C(=O)[C@@H](NC(=O)[C@H](C(C)C)N(C)C(=O)OCc1ccc(NC(=O)[C@@H]2CCCN2C(=O)CNC(=O)CCCCCN2C(=O)CC(SC[C@H](NC(=O)[C@H](CC(=O)O)NC(=O)[C@H](CCCCN)NC(=O)[C@H](CC(=O)O)NC(=O)CCC(=O)NC(COCCC(=O)NCCNC(=O)CCC(=O)Nc3cccc4c(C(=O)NCC(=O)N5CC(F)(F)C[C@H]5C#N)ccnc34)(COCCC(=O)NCCNC(=O)CCC(=O)Nc3cccc4c(C(=O)NCC(=O)N5CC(F)(F)C[C@H]5C#N)ccnc34)COCCC(=O)NCCNC(=O)CCC(=O)Nc3cccc4c(C(=O)NCC(=O)N5CC(F)(F)C[C@H]5C#N)ccnc34)C(=O)O)C2=O)cc1)C(C)C` (stereo in doubt) [Tri-ESV6-GlyPro-MMAE]: in data set [1], the “tolerability (body weight change), in words” value was “well tolerated”. The “MMAE release in tumor and healthy organs, in words” value in data set [2] was “cleaner biodistribution profile, with high and prolonged accumulation at the tumor site, and lower release in the healthy organs”.
